According to patent US20240116985A1 (published 2024):
Starred links: 1 amine or outer side, 2 acyl side, 3 side chain; linkers in the order of their positions; H or OH if unused. Positions of bridges follow the written chain, without caps; N, C: chain ends. Non-standard residues stand in square brackets, D forms with d. Primed or numbered codes have the meaning given here. *: point of attachment. PyrS2″ = (S)-3-amino-1-((pent-4-en-1-yloxy)carbonyl)pyrrolidine-3-carboxylic acid (stapling residue), C=CCCCOC(=O)N1CC[C@@](N[*:1])(C(=O)[*:2])C1; B5(4) = 2,2-bis(4-pentenyl)glycine = 2-amino-2-(pent-4-en-1-yl)hept-6-enoic acid (stitching residue), C=CCCCC(CCCC=C)(N[*:1])C(=O)[*:2]; B5(5) = 2,2-bis(4-pentenyl)glycine, 2-amino-2-(pent-4-en-1-yl)hept-6-enoic acid (stitching residue), C=CCCCC(CCCC=C)(N[*:1])C(=O)[*:2]; TfeGA = (S)-2-amino-3-((carboxymethyl)(2,2,2-trifluoroethyl)amino)propanoic acid, O=C([C@H](CN(CC(=O)[*:3])CC(F)(F)F)N[*:1])[*:2]; PyrS2 = (S)-3-amino-1-((pent-4-en-1-yloxy)carbonyl)pyrrolidine-3-carboxylic acid, C=CCCCOC(=O)N1CC[C@@](N[*:1])(C(=O)[*:2])C1; Phe(3-COOH) = N[C@@H](Cc1cccc(C(=O)O)c1)C(=O)O; Bta = N[C@@H](Cc1csc2ccccc12)C(=O)O; αAllylPro = C=CC[C@@]1(C(=O)O)CCCN1; tBuAla = CC(C)(C)C[C@H](N)C(=O)O; 3Thi = N[C@@H](Cc1ccsc1)C(=O)O; S8 = C=CCCCCCC[C@](C)(N)C(=O)O; Ms = CS(=O)(=O)*

T1: Bcat-Halo (beta-catenin HaloTag construct transfected into HEK293 cells) (UniProt P35222 1-781)
T1 sequence (looked up): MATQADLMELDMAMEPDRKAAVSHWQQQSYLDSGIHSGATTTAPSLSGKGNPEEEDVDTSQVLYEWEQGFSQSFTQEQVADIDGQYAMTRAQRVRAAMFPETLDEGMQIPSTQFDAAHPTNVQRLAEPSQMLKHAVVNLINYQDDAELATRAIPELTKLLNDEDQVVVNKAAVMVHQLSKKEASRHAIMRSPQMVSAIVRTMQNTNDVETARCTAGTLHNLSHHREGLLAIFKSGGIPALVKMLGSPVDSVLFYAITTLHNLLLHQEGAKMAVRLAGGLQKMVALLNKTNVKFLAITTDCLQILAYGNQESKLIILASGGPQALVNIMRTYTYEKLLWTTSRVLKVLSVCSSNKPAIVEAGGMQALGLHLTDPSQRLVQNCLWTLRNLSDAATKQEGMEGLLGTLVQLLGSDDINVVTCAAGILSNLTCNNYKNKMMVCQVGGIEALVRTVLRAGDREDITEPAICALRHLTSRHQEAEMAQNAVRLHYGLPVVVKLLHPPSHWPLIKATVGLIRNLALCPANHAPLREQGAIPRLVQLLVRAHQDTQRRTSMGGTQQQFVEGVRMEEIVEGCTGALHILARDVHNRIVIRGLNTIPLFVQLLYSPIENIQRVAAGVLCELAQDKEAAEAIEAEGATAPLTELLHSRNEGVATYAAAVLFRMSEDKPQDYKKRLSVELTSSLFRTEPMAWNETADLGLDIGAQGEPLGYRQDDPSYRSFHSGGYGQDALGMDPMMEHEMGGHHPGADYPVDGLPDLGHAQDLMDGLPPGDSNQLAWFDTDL

T2: beta-catenin in DLD1 TCF/LEF luciferase reporter cells (UniProt P35222 1-781)
T2 sequence (looked up): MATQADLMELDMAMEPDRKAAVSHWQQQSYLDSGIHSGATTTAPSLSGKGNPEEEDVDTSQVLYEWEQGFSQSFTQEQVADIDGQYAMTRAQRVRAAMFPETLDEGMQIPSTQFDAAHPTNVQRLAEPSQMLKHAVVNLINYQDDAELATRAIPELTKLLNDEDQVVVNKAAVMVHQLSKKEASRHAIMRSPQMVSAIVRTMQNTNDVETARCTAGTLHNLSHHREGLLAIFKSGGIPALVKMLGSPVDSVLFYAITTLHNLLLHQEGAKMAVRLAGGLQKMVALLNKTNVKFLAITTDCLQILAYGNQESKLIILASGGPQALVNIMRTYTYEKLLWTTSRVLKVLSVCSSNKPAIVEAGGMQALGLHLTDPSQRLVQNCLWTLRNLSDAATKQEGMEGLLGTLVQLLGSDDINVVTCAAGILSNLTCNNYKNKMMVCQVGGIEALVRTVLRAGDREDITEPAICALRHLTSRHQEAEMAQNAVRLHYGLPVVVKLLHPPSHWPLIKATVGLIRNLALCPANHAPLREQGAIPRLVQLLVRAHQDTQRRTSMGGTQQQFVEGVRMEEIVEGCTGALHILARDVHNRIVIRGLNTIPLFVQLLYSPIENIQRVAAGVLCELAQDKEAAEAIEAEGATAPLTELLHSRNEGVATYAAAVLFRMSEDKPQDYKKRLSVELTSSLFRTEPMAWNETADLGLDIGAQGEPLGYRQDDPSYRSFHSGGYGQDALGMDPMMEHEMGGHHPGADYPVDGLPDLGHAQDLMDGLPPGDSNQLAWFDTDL

T3: full-length beta-Catenin (Uniprot ID P35222) (Homo sapiens (Human), UniProt P35222 1-781)
T3 construct: also called bCat; B-Catenin
T3 sequence: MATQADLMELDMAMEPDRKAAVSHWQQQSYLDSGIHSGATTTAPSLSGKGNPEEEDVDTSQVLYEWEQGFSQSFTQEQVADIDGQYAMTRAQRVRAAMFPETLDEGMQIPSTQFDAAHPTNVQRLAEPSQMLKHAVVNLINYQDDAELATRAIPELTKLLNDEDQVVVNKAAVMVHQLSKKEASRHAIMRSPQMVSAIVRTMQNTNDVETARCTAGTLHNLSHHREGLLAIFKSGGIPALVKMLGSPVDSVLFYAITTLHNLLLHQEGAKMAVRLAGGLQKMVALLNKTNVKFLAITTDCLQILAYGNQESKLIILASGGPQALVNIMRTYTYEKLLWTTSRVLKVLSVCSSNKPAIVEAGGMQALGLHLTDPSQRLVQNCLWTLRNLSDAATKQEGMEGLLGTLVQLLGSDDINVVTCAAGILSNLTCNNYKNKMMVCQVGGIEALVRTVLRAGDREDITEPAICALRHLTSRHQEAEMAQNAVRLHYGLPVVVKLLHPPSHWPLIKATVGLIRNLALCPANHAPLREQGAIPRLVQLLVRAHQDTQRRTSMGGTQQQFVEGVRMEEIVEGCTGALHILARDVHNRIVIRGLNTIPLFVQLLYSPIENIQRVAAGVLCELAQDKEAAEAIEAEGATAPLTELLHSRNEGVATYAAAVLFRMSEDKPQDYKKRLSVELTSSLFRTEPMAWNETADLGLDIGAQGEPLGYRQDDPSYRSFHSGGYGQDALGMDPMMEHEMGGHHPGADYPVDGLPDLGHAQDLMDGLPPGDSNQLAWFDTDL


Tests used:
[1] = target: T1, Bcat-Halo (beta-catenin HaloTag …); test: cell-based or functional assay
[2] = target: T2, beta-catenin in DLD1 TCF/LEF luciferase …; test: cell-based or functional assay
[3] = target: T3, full-length beta-Catenin (Uniprot ID …); test: fluorescence polarization competition; peptide titrated against full-length beta-catenin + 5FAM-TCF4(10-53)
Method: The plate was incubated protected from light for 60 minutes at 20° C. prior to read. Reads were performed on a CLARIOstar plate reader (BMG Labtech) in duplicate, and data were fitted to a 1:1 binding model with hill slope using an in-house script. All provided concentrations are final concentrations.

| NanoBRET Abs IC50 [1] | DLD1 4% Abs IC50 [2] | IC50 [3] | Binder |
| --- | --- | --- | --- |
| 3.7 µM | 1.7 µM |  | Ac-[αAllylPro]D[tBuAla][B5(4)]D[TfeGA]AAFL[PyrS2][3Thi][Bta]Q-NH2 (staple 1-4, 4-11) [I-1461] |
| 2.3 µM | 2.7 µM |  | Ac-[αAllylPro]D[tBuAla][B5(4)]D[Phe(3-COOH)]AAFL[PyrS2″][3Thi][Bta]Q-NH2 (staple 1-4, 4-11) [I-1462] |
|  |  | 88 nM | Ms-[αAllylPro]DI[B5(5)]DEAAFQ[S8]F[Bta]Q-NH2 (staple 1-4, 4-11, separate staple-isomer composition (later eluting HPLC peak); also called MeSO2-PL3-Asp-Ile-B5-Asp-Glu-Ala-Ala-Phe-Gln-S8-Phe-BztA-Gln-NH2) [I-711] |
